Data as given in the supplement of paper PMC9112550, “Optimization of the antimicrobial peptide Bac7 by deep mutational scanning” (BMC Biology, 2022).

system: Escherichia coli TOP10; experiment: shrunken log2 fold change of peptide-encoding DNA abundance (4.5 h post-induction vs induction); higher = less antimicrobial activity (less host growth inhibition); details: time post-induction: 4.5 h; library: site-saturation at positions 5, 18, 19, 20
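Further: peptides expressed intracellularly from a pBAD plasmid library in pooled LB shake-flask culture, induced with 0.3% L-arabinose, DNA abundance read by NGS, three biological replicates, DESeq2 with apeglm shrinkage.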

Sequence | shrunken log2 fold change
RRIRYRPPRLPRPRPRPKHCPRP | -0.611
RRIRARPPRLPRPRPRPHSNPRP | -0.251
RRIRTRPPRLPRPRPRPAKFPRP | -0.00176
RRIRPRPPRLPRPRPRPWLQPRP | -0.064
RRIRGRPPRLPRPRPRPRWQPRP | 0.994
RRIRWRPPRLPRPRPRPDLEPRP | 0.974
RRIRNRPPRLPRPRPRPADRPRP | -0.00994
RRIRNRPPRLPRPRPRPPCIPRP | -0.662
RRIRGRPPRLPRPRPRPKNKPRP | 0.375
RRIRGRPPRLPRPRPRPCGGPRP | 0.472
RRIRQRPPRLPRPRPRPTPFPRP | 0.296
RRIRCRPPRLPRPRPRPESVPRP | 0.025
RRIRLRPPRLPRPRPRPNAGPRP | 0.0644
RRIRDRPPRLPRPRPRPVPGPRP | 0.214
RRIRFRPPRLPRPRPRPGVFPRP | -0.227
RRIRVRPPRLPRPRPRPHYQPRP | -0.213
RRIRKRPPRLPRPRPRPEFNPRP | 0.15
RRIRLRPPRLPRPRPRPCAHPRP | -0.417
RRIRLRPPRLPRPRPRPAGGPRP | 0.169
RRIRERPPRLPRPRPRPQLPPRP | 0.021
RRIRKRPPRLPRPRPRPMNQPRP | -0.153
RRIRTRPPRLPRPRPRPFRYPRP | -0.0915
RRIRTRPPRLPRPRPRPNMWPRP | -0.365
RRIRARPPRLPRPRPRPTNYPRP | -0.137
RRIRWRPPRLPRPRPRPKFNPRP | -0.434

Sequence | shrunken log2 fold change
RRIRCRPPRLPRPRPRPYACPRP | -0.0609
RRIRVRPPRLPRPRPRPRYRPRP | -0.0212
RRIRSRPPRLPRPRPRPMAEPRP | 0.348
RRIRHRPPRLPRPRPRPMRWPRP | 0.396
RRIRRRPPRLPRPRPRPSEPPRP | 0.115
RRIRSRPPRLPRPRPRPFLDPRP | -0.149
RRIRLRPPRLPRPRPRPTSTPRP | -0.194
RRIRKRPPRLPRPRPRPAVCPRP | 0.356
RRIRFRPPRLPRPRPRPDRWPRP | 0.0556
RRIRNRPPRLPRPRPRPGFTPRP | 0.0826
RRIRMRPPRLPRPRPRPLEKPRP | 1.07
RRIRARPPRLPRPRPRPFYWPRP | -0.24
RRIRDRPPRLPRPRPRPVTFPRP | -0.0135
RRIRHRPPRLPRPRPRPNMGPRP | -0.0579
RRIRFRPPRLPRPRPRPEAGPRP | 0.806
RRIRHRPPRLPRPRPRPTKQPRP | -0.0343
RRIRYRPPRLPRPRPRPCGIPRP | -0.00192
RRIRSRPPRLPRPRPRPKVFPRP | -0.063
RRIRRRPPRLPRPRPRPLSGPRP | 0.379
RRIRYRPPRLPRPRPRPPECPRP | 0.0463
RRIRMRPPRLPRPRPRPDGYPRP | 0.818
RRIRRRPPRLPRPRPRPVMFPRP | 0.155
RRIRIRPPRLPRPRPRPFTDPRP | 0.0112
RRIRSRPPRLPRPRPRPVAKPRP | 0.116
RRIRYRPPRLPRPRPRPDASPRP | -0.00663

Sequence | shrunken log2 fold change
RRIRLRPPRLPRPRPRPCEDPRP | 0.00976
RRIRHRPPRLPRPRPRPPCYPRP | -0.131
RRIRLRPPRLPRPRPRPCRDPRP | -0.211
RRIRMRPPRLPRPRPRPCWAPRP | 0.168
RRIRERPPRLPRPRPRPDDPPRP | -0.157
RRIRNRPPRLPRPRPRPHWGPRP | -0.0266
RRIRARPPRLPRPRPRPTEKPRP | 0.413
RRIRWRPPRLPRPRPRPITVPRP | -0.0559
RRIRFRPPRLPRPRPRPGQHPRP | 0.176
RRIRPRPPRLPRPRPRPGVEPRP | 0.249
RRIRERPPRLPRPRPRPSLRPRP | -0.313
RRIRERPPRLPRPRPRPQREPRP | 0.0255
RRIRMRPPRLPRPRPRPVCIPRP | -0.0455
RRIRNRPPRLPRPRPRPETKPRP | 0.384
RRIRFRPPRLPRPRPRPDWYPRP | -0.0899
RRIRNRPPRLPRPRPRPVTGPRP | -0.362
RRIRMRPPRLPRPRPRPSLTPRP | 0.806
RRIRRRPPRLPRPRPRPGTGPRP | 0.21
RRIRMRPPRLPRPRPRPYINPRP | -0.574
RRIRWRPPRLPRPRPRPCQPPRP | -0.118
RRIRPRPPRLPRPRPRPDRKPRP | -0.124
RRIRDRPPRLPRPRPRPLRMPRP | 0.409
RRIRFRPPRLPRPRPRPRAMPRP | 0.241
RRIRVRPPRLPRPRPRPWVGPRP | -0.0497
RRIRVRPPRLPRPRPRPQNWPRP | 0.0353
